Experimental data from PMC3192257 (Molecular microbiology, 2011).

B1: 6His-Hag fusion protein (flagellin) (natural protein)
chain: not shown
B2: FliW (natural protein, Bacillus subtilis (strain 3610), UniProt P96503 1-143, looked up)
chain: MIIHTKYHGQMNIKEEQIILFESGIPGFLEEKQFVILPLSEDSPFVALQSVTSENLAFIVVSPFIFFKNYEFDLDESTAELLDIDNIQDVEVMTILTMAEPFEKSTANLLAPIIVNRKNMMAKQVVLHDSSYTTKHPIGGESC

Columns and labels:
FliW = target: B2; assay: ITC
[1] = target: B1; assay: ITC

Kd (FliW) [µM]	dH (FliW) [kJ/mol]	stoichiometry N (FliW)	Kd [1] [µM]	Binder
0.02	-64.4	0.46		His-CsrA (CsrA containing six His residues at the C-terminus) (natural protein, Bacillus subtilis, UniProt P33911 1-74, looked up) MLVLSRKINEAIQIGADIEVKVIAVEGDQVKLGIDAPKHIDIHRKEIYLTIQEENNRAAALSSDVISALSSQKK
	-92	1.29		B1
			0.14	B2
